# US20090005294A1 (CENTRO DE INGENIERIA GENETICA Y BIOTECNOLOGIA, published 2009)
# Bridges are numbered along the chain shown (N, C = ends). Where no end group is shown, it is not given here.
# T1: CKII substrate peptide RRREEETEEE (optimized consensus domain for CKII phosphorylation)
# T1 peptide: RRREEETEEE
# Target: T1, CKII substrate peptide RRREEETEEE …
# Experiment: cell-based or functional assay
row,Binder,"inhibition of CKII phosphorylation of the substrate peptide (32P, cpm on filters) [%]"
1,CSSCQNSPALC (disulfide 1-11) [cyclic peptide (b) CSSCQNSPALC],80
2,CQIPQRTATRC (disulfide 1-11 (inferred)) [cyclic peptide (c) CQIPQRTATRC],80
3,CKQSYLHHLLC (disulfide 1-11 (inferred)) [cyclic peptide (i) CKQSYLHHLLC],80
4,CSVRQGPVQKC (disulfide 1-11 (inferred)) [cyclic peptide (a) CSVRQGPVQKC],80
5,CAKQRTDPGYC (disulfide 1-11 (inferred)) [cyclic peptide (d) CAKQRTDPGYC],80
6,CRNCTVIQFSC (disulfide 1-11) [cyclic peptide (f) CRNCTVIQFSC],80
7,CFQPLTPLCRC (disulfide 1-11) [cyclic peptide (j) CFQPLTPLCRC],80
8,CWMSPRHLGTC (disulfide 1-11 (inferred)) [cyclic peptide (e) CWMSPRHLGTC],80
9,CHYIAGTVQGC (disulfide 1-11 (inferred)) [cyclic peptide (g) CHYIAGTVQGC],80
10,CQSYHELLLQC (disulfide 1-11 (inferred)) [cyclic peptide (k) CQSYHELLLQC],80
11,CPLVSLRDHSC (disulfide 1-11 (inferred)) [cyclic peptide (h) CPLVSLRDHSC],80
